Test: soluble on expression in E. coli; label from the status in PepcDB or PDB records

Sequence | soluble on expression in E. coli
MGFLQRIGLLPQVTTTPTQHELLAPLLDTYIGVVTEMPTEELFAEQPHLRTVTTFIARAISSTSLHVYRRDSDGGRHRVRDSDLAKLMRRSSKTELMQDMLNGSILDLCLYDEFIWVAMEDSDSGEWELHRIPPTWIKQRKHSDPWTLEWMGIIDAKTGQQIKIPAERIIHVHGYNPTSTSRGLTPVVALRETLKEQLESAAYRGQLWRNGPRLGGVITRPKDAKWDSTSRKRFKAAWQSQYSGRGSGAGGTPILEDGMQFVPAHLKAQDEQVVEMTKLSLQTVASIYHVNPVMVGLLDNANYSNVREFRRSLYGDSLGPIIKQVEGVINEFLRPMIDDDDAVYVEFNLDEKLRASFEEKAAVTSTAVGGPWMTRNEARAMNNLPAIDGGEDLITPLNVTTENSESNNDVGLEEES | not soluble
HKFIRTAIDMDKNRAFSSRLRQSIKDYFDMPWYLTFADAERLSDLRDEALVLRDDEVTGQVPMEVEYEEFQQVNDELSERIGDMLKAHKEQGTPIDLSVVLRDYLAQHPYTHHFDLARIIVDQAVRLGYSESDYQAIQPDWKAINEFGAKVQANVIDRY | soluble
MSLAQLDKNDPARGVLAAIAANASKIAEYDPRVRADEYDSVHQMRVATRELRSHLQTFEGILGGEDYLNLEKELKVLANILGRARDAEVVEERLSNLINTEVGDSIEEETKKELLEDLGAEYRREHERVVRALDNDRYTDLLQALENLLVDPPLITEVEEPEATEAPESAETTESTDVSEATEEADAEAESVEEATEQEESADAPESADLDALDEEYSPGSQAPVEEPKEPKKVDAALVLLEHLDKAHVKLVKLEKKARSQWDDLSIPMLEREENFHNLRKAAKKLRYSAEAVGKATTVETKKLYKACSGLQSVLGDYQDAITSRNELLRRAQVARRQGRDTFAYGILYQHEQTLSREYLTGYSDAFKSVEKAYAKLAEDTAKRSKKNKRKEGHHHHHH | not soluble
MAHHHHHHMMDMRQLDVSAVARSAMSCMEAKHMSANVKLYTLGFLTFLASSKSWQPYRMSHPDKVEEQALYEDSELASSFISTKYPAGWQQNASEVLNTKFPGLLGEVTAHLSLGGKDTISALPRRHDGR | not soluble
SMIPEVQKPLHEQLWYHGAIPRAEVAELLVHSGDFLVRESQGKQEYVLSVLWDGLPRHFIIQSLDNLYRLEGEGFPSIPLLIDHLLSTQQPLTKKSGVVLHRAVPKDKWVLNHEDLVLGEQIGRGNFGEVFSGRLRADNTLVAVKSCRETLPPDLKAKFLQEARILKQYSHPNIVRLIGVCTQKQPIYIVMELVQGGDFLTFLRTEGARLRVKTLLQMVGDAAAGMEYLESKCCIHRDLAARNCLVTEKNVLKISDFGMSREEADGVYAASGGLRQVPVKWTAPEALNYGRYSSESDVWSFGILLWETFSLGASPYPNLSNQQTREFVEKGGRLPCPELCPDAVFRLMEQCWAYEPGQRPSFSTIYQELQSIRKRHR | soluble
MNGGTFTTGKEKERAGIYFNFKTTAQERVSLSERGTVALPVASSWGEAKTFVSISSVEDLNKKVGLSIDDPSLLLLREAKKNAKTVLMYRLTEGVRASADIAEGVKATAVYGGTKGNDIIIRINQNVLDANSFDVTTYMDESEVDKQTVKKAEELTANGYVTFTGTGDLSSTIPLTGSEGDTAAETLNASAGIRLSGGTDKAPVNSDYTDFLAAAETESFDVIALPVAEGDQLKATFAAFIKRLRDGQGQKVQGVTANYAGDYEGIINVTEGVLLEDGTEVTPDKATAWVAGASAGATFNQSLTFVEYEGAVDVLHRLDHDTIVERLGKGEFLFTFDARDKSVSVEKDINSLVTFTAEKNKKFAKNKIVRVLDAVNNDLTRELKALIKSRKGSGSDIPASEDGLQYVKTMITQYMTTLQDAGGITGFDSDEDITISMNEDRDGFLIDLLYSLSTQQKNSTLMWRLEHHHHHH | soluble
MHKEIAKELLLLAGGKNNIISISHCTTRLRFDVKDETKIDIHAIENLQGVQGTFFRYGLFQIIFGAGVVNKIYKEVVHVWETAPSEEPVHQKKASRKLNPAAAFAKTLSDI | not soluble
MCTGFTIQTLNNQVLLGRTMDYDYPLDGSPAVTPRNYRWKSRTGTTGQTQYGFIGTGTDMEGFIYGDGVNEHGVAISTQYFRGYSSYGSTHKADAMNITQNEIVTWILVYTTSIEDMKQQASQIHVVAVYLNDIGEVPPLHYHVSDATGHTVEVSFKEGEVVIKDNPIGVLTNHPDLNWHYSNLRQYINISPYPATANLLEGVTIEPLGNEAGTFGLPGGFTSTERFVRMTFMKANIAQNNDKEMDLMNAFYLLDAVNIPIGIVRPHDADNHYTMYQTVINLTTRTLYIKYYGSNELVALKLTDDLINRKDMTIFKPEKHITIRKLNDNQ | not soluble
STRHPENYQWENWSLENVATILAHRFPNSYIWVIKCSRMHLHKFSCYDNFVKSNMFGAPEHNTDFGAFKHLYMLLVNAFNLSQNSLSKKSLNVWNKDSIASNCRSSPSHTTNGCQGEKVRTCEKSDESAMSFYPPSLNDASFTLIGFSKGCVVLNQLLFELKEAKKDKNIDAFIKSIRTMYWLDGGHSGGSNTWVTYPEVLKEFAQTGIIVHTHVTPYQVRDPMRSWIGKEHKKFVQILGDLGMQVTSQIHFTKEAPSIENHFRVHEVF | soluble
MVEINNQRKAFLDMLAWSEGTDNGRQKTRNHGYDVIVGGELFTDYSDHPRKLVTLNPKLKSTGAGRYQLLSRWWDAYRKQLGLKDFSPKSQDAVALQQIKERGALPMIDRGDIRQAIDRCSNIWASLPGAGYGQFEHKADSLIAKFKEAGGTVREIDV | soluble
MGHHHHHHSHMPKGIALALGLNAVDPKHYGGWAGKLNACEADAEDMAAIAAERGFAVTTLMTKAATRAKVIDAIGKAAKALGKGDIFMLSYSGHGGQVPDTSNDEPDGVDETWCLFDGELIDDELYALLGKFAAGVRVLVFSDSCHSGTVVKMAYYNGTTAARSAGPDEGEIRYRAMPQSVAMRTYRANREFYDTIQQKTKKVDLADVKASILLISGCQDNQLSQDGAFNGAFTGQLLRVWKNGLYKGSYRSFHKAIVRRMPPDQTPNFFTAGTPDPAFLKQRPFTV | soluble
MAGENIIIDLNFAVSANPREVWDVLTDFDRMADFVSNLKESKVVSISEDKFTIFQNGTATYGPIRYPFESIREVRLIPYHKILTHLVSGNMHKLDGTTYLTDETGGTRVVHRTEAIPKVWIPAVVGKVFIEHEVREQFNEMRNEIIRRKRAALKKGHEKQDGRLEHHHHHH | soluble
MAKEKEKLFSEFPPVSREAWIDKITADLKGVPFEKKLVWRTNEGFNVNPFYRREDIEDLKTTTSLPDEYPYVRSTRMHNEWLVRQDIVVGDNVAEANEKALDLLNKGVDSLGFYLKKVHINVDTLAALLKDIELTAVELNFNCCITRAADLLSAFSAYVKKVGADPNKCHGSVSYDPFKKQLVRGVSNPDWVKMTLPVMDAARELPAFRVLNVNAVNLSDAGAFITQELGYALAWGAELLDKLTDAGYKPEEIASRIKFNFGIGSNYFMEIAKFRAARWLWAQIVGSYGDQYKNETAKIHQHATTSMWNKTVFDAHVNLLRTQTETMSAAIAGVDSITVLPFDVTYQQSDDFSERIARNQQLLLKEECHFDKVIDPSAGSYYIETLTNSIGEEAWKLFLSVEDAGGFTQAAETASIQKAVNASNIKRHQSVATRREIFLGTNQFPNFTEVAGDKITLAQGEHDCNCVKSIEPLNFSRGASEFEALRLATEKSGKTPVVFMLTIGNLAMRLARSQFSSNFFGCAGYKLIDNLGFKSVEEGVDAALAAKADIVVLCSSDDEYAEYAPAAFDYLAGRAEFVVAGAPACMADLEAKGIRNYVHVKSNVLETLRAFNDKFGIR | not soluble
MNLHVKTLSLMTWRSRFLEESFWSLEETAALAKQLPLKSPSENIFLHIVDLSDPKQIWKFVENFKQEHKLHVLINNAGCMVNKRELTEDGLEKNFAANTLGVYILTTGLIPVLEKEHDPRVITVSSGGMLVQKLNTNDLQSERTPFDGTMVYAQNKRQQVVLTERWAQGHPAIHFSSMHPGWADTPDRNEQELRKVVGEAQTASPLPRFLEIMMHEGKCQPQGHSSNDLEACWSSGGGEQNSLPDWPHQLHDLRQLTWALCSSFLLYKQGN | not soluble
MITAIVFDVDDTIYDQQAPYRIAMEKCFPDFDMSVMNQAYIRFRHYSDVGFPRVMAGEWTTEYFRFWRCKETLLEFGYREIDEAAGVHFQEVYEHELENITMLDEMRMTLDFLKSKNVPMGIITNGPTEHQLKKVRKLGLYDYIDAKRVIVSQATGFQKPEKEIFNLAAEQFDMNPQTTLYVGDSYDNDIMGAFNGGWHSMWFNHRGRQLKPGTKPVYDVAIDNFEQLFGAVKVLFDLPDNKFIFDVNDKKNPILQMGINNGLMMAAERLLESNMSIDKVVILLRLTKQQEKVLRLKYAR | not soluble
GPGSGSDERVVALKDITLAESKHSNAATTKQGASTTNCLQRSNLPPPFAPVRRGEFVMIRGPSGGGKTTLLNIIGSIDSCTEGNIELNGRIIDKDTKESVLADIRLKNIGFVFQTFNLIATMTAAENVELPMTLLGTMSTKAMRLRSRQLLTLVGLRNRINHLPSELSGGEQQRVTIARSLANNPSILLLDEPTGDLDTANTIEVMDLLMRINRRTKTTCIMVTHNPDIECYADRILYVSDGRFAKEVFNALPMCLDLENYTEYLAAKERAITGFAGVGDVEDDSEPRATAAMAECIG | not soluble
MSLRQPNPSQKKAPTGQVRIISGLWRGRKLPVHDAEGLRPTTDRVKETLFNWLAQEVPNARCLDLFAGSGGLGFECASRQANQVTMLELNPLAFQQLKTNVQSLKAENIELIHTDALAFLRQSGKPYDVVFIDPPFRQGLLQETTQLLEQNGWLAPQAMIYIECEKELPLTELPPHWHLHREKSAGQVCYREGHHHHHH | not soluble
MGSDKIHHHHHHMPLRGGVTCRVPSGMWMVPPHCGVWVPGGMLHSNVATANARLFFLFIEPGAADLPNRCCTLSLSPLVRELIIELADQSEVATADSELMTTLLLSALSRMPVEHLHLPLTDEPRLARIASELADDPSDRSTMAQWARRVAMSENSLARLVQHQTGLTFGRWRQQLQLIIAIRSLASGATVQQVSGDLGYESVSAFITMFKKALGTSPSRYLRNFDR | not soluble
MGSDKIHHHHHHSDNAGRTDKQTATVHDSQKDTSSDSKSDNDKKDTKYKSADEITMDDLMSHDETPAEDFELIDNSDEIVIQKYIGKDPIMVIPDEINGKKVVSLGTYALANDKNIVAIKIGNNIKDLGEGVFGNCENLRYVVLGDSVKTIGCNPFLNTNIQEVTLNDGLQKIGEDDINNTVDAPSKNIGMDLKIPESVTEMHLRDFHLIVKAGSYAEQYAKEYAESNNLTYTVE | not soluble
MSPIMARKPQIQAEQLAQKFVEKPEEQKDKQAVQKGQQLEGAKRWVADSELREQPVNSMQQVEHGPKAVILADDACWQTQRRVPAEIQLPQVGKISIPELSEKEIQRTIVAQPASYHKVQWNEFPEEPKYEIGAVPKTKTQDWVPVNNEQNELQRSIYKPARMSAVWPPPQDELVKDGHSPLVVKANEDTAWIQQDQNGVLKQAVWGKTSRINRVWPPPENESTLSDFGPQHMPVVQWPPPEAEAHEREQVEVLQKHIPTKKMERQWPPPPPQYQVVESSGEIETRYNPAEVDQQQQAVNSLRMGHIQA | not soluble
MIRMAQNNKELEKLAYEYQVLQAQAQILAQNLELLNLAKAEVQTVRETLENLKKIEEEKPEILVPIGAGSFLKGVIVDKNNAIVSVGSGYAVERSIDEAISFLEKRLKEYDEAIKKTQGALAELEKRIGEVARKAQEVQQKQSMTSFKVKK | soluble
MLAFGPVPSRRLGRSLGVNNIPAKICSYACVYCQIGKTLKMEVERRKFYEPERIYNDVSAKVKSGERIDYITFVPDGEPTLDINLGKEAEMLRDFGIKLAILTNSSLIWREDVREDLMNFDLVSLKLDAVSDDIWRKVNRPHKSLSLEKILEGMLDFRKEFKGTIITETMLINIDYGEELEKIATFLKELKPDKAYIAIPTRPPAESWVKPASEVIINKAYQLFSEALGEERVEYLIGYEGNAFAFTGNVEEDLLSITAVHPMREEAVRELLRKAGASWDVVEKMIKEGKLIELEYNGKKFYMRKLGSR | not soluble

Reference: the DeepSol protein solubility set
